Target: Telomeric repeat binding factor 2 (TRF2), endogenous (human (endogenous in C1, UTC8505, RD and HEK293T cells))
Assay: proximity ligation; Duolink PLA in fixed, permeabilised C1 cells with antibodies to HMGA2 (D1A7), TRF2 and RAP1; a minimum of 30 nuclei quantified

- PLA foci per nucleus (PLA foci per nucleus): 5
B1: High Mobility Group AT-hook protein 2 (HMGA2), endogenous (natural protein)
chain: MSARGEGAGQPSTSAQGQPAAPAPQKRGRGRPRKQQQEPTGEPSPKRPRGRPKGSKNKSPSKAAQKKAEATGEKRPRGRPRKWPQQVVQKKPAQEETEETSSQESAEED
